# From US20240010751A1 (EXELIXIS, published 2024)
# Changes are numbered by the printed parent chain.
# B1: C40 x P31.2 bispecific antibody in a BC44 format (bispecific antibody)
# chain 1: not shown
# chain 2: EVQLVESGGGLVQPGGSLRLSCAASGFTFSYYYIHWVRQAPGKGLEWVAWIDPYGHSTTYADSVKGRFTISADTSKNTAYLQMNSLRAEDTAVYYCARGGRGAMDYWGQGTLVTVSSASPREPQVYTLPPCRDELTKNQVSLTCLVKGFYPSDIAVEWESNGQPENNYKTTPPVLDSDGSFFLYSKLTVDKSRWQQGNVFSCSVMHEALHNHYTQKSLSLSPGK
# chain 3: DIQMTQSPSSLSASVGDRVTITCRASQSVSSAVAWYQQKPGKAPKLLIYSASSLYSGVPSRFSGSRSGTDFTLTISSLQPEDFATYYCQQFGAEPITFGQGTKVEIKRTVAAPSVFIFPPSDEQLKSGTASVVCLLNNFYPREAKVQWKVDNALQSGNSQESVTEQDSKDSTYSLSSTLTLSKADYEKHKVYACEVTHQGLSSPVTKSFNRGECDKTHTCPPCPAPELLGGPSVFLFPPKPKDTLMISRTPEVTCVVVDVSHEDPEVKFNWYVDGVEVHNAKTKPREEQYNSTYRVVSVLTVLHQDWLNGKEYKCKVSNKALPAPIEKTISKAKGQPREPQVCTLPPSREEMTKNQVSLSCAVKGFYPSDIAVEWESNGQPENNYKTTPPVLDSDGSFFLVSKLTVDKSRWQQGNVFSCSVMHEALHNHYTQKSLSLSPGK
# chain 4: EVQLVESGGGLVQPGGSLRLSCAASGFTFSSYYIHWVRQAPGKGLEWVATISSGGGFTYYADSVKGRFTISADTSKNTAYLQMNSLRAEDTAVYYCARGYTLTPVLDYWGQGTLVTVSSASTKGPSVFPLAPSSKSTSGGTAALGCLVKDYFPEPVTVSWNSGALTSGVHTFPAVLQSSGLYSLSSVVTVPSSSLGTQTYICNVNHKPSNTKVDKKVEPPKSC
# notes: B-Body of four polypeptide chains, BC44 format; CD47 arm from C40, PD-L1 arm from P31.2; also called C40 × P31.2
# B2: C40 x P24 bispecific antibody in a BC44 format (bispecific antibody)
# chain 1: not shown
# chain 2: B1 chain 2
# chain 3: B1 chain 3 with F91V, G92S, A93Y, E94S, I96Y
# chain 4: EVQLVESGGGLVQPGGSLRLSCAASGFTFDQYYIHWVRQAPGKGLEWVAEIYPAGSYTYYADSVKGRFTISADTSKNTAYLQMNSLRAEDTAVYYCARGPYSVRYALDYWGQGTLVTVSSASTKGPSVFPLAPSSKSTSGGTAALGCLVKDYFPEPVTVSWNSGALTSGVHTFPAVLQSSGLYSLSSVVTVPSSSLGTQTYICNVNHKPSNTKVDKKVEPPKSC
# notes: B-Body of four polypeptide chains, BC44 format; CD47 arm from C40, PD-L1 arm from P24; also called C40 × P24
# B3: C59 x P31.2 bispecific antibody in a BC44 format (bispecific antibody)
# chain 1: not shown
# chain 2: B1 chain 2 with S30T, Y31S, W50Y, P53S, Y54K, G55H, H56G, S57T, T59Q, G102S
# chain 3: B1 chain 3
# chain 4: B1 chain 4
# notes: B-Body of four polypeptide chains, BC44 format; CD47 arm from C59, PD-L1 arm from P31.2; also called C59 × P31.2
# B4: C56 x P22 bispecific antibody in a BC44 format (bispecific antibody)
# chain 1: not shown
# chain 2: B1 chain 2 with S30T, W50F, G55S, H56G, T59E, R101L, G102Y, M104L
# chain 3: B1 chain 3 with F91Y, G92Y, A93T, E94S, I96Y
# chain 4: EVQLVESGGGLVQPGGSLRLSCAASGFTFSSYYIHWVRQAPGKGLEWVAWITSHGYSTKYADSVKGRFTISADTSKNTAYLQMNSLRAEDTAVYYCARDSVIYGLDYWGQGTLVTVSSASTKGPSVFPLAPSSKSTSGGTAALGCLVKDYFPEPVTVSWNSGALTSGVHTFPAVLQSSGLYSLSSVVTVPSSSLGTQTYICNVNHKPSNTKVDKKVEPPKSC
# notes: B-Body of four polypeptide chains, BC44 format; CD47 arm from C56, PD-L1 arm from P22; also called C56 × P22
# B5: C59 x P22 bispecific antibody in a BC44 format (bispecific antibody)
# chain 1: not shown
# chain 2: B1 chain 2 with S30T, Y31S, W50Y, P53S, Y54K, G55H, H56G, S57T, T59Q, G102S
# chain 3: B1 chain 3 with F91Y, G92Y, A93T, E94S, I96Y
# chain 4: B4 chain 4
# notes: B-Body of four polypeptide chains, BC44 format; CD47 arm from C59, PD-L1 arm from P22; also called C59 × P22
# B6: C40 x P24 bispecific antibody in a BC1 format (bispecific antibody)
# chain 1: not shown
# chain 2: B1 chain 2 with L128D, C131S, P222G, G223E, K224C
# chain 3: B1 chain 3 with F91V, G92S, A93Y, E94S, I96Y
# chain 4: B2 chain 4
# notes: B-Body of four polypeptide chains, BC1 format; CD47 arm from C40, PD-L1 arm from P24; also called C40 × P24
# B7: C59 x P22 bispecific antibody in a BC1 format (bispecific antibody)
# chain 1: not shown
# chain 2: EVQLVESGGGLVQPGGSLRLSCAASGFTFTSYYIHWVRQAPGKGLEWVAYIDSKHGTTQYADSVKGRFTISADTSKNTAYLQMNSLRAEDTAVYYCARGGRSAMDYWGQGTLVTVSSASPREPQVYTDPPSRDELTKNQVSLTCLVKGFYPSDIAVEWESNGQPENNYKTTPPVLDSDGSFFLYSKLTVDKSRWQQGNVFSCSVMHEALHNHYTQKSLSLSGEC
# chain 3: B1 chain 3 with F91Y, G92Y, A93T, E94S, I96Y
# chain 4: B4 chain 4
# notes: B-Body of four polypeptide chains, BC1 format; CD47 arm from C59, PD-L1 arm from P22; also called C59 × P22
# B8: C56 x P22 bispecific antibody in a BC1 format (bispecific antibody)
# chain 1: not shown
# chain 2: B7 chain 2 with S31Y, Y50F, S53P, K54Y, H55S, T57S, Q59E, R101L, S102Y, M104L
# chain 3: B1 chain 3 with F91Y, G92Y, A93T, E94S, I96Y
# chain 4: B4 chain 4
# notes: B-Body of four polypeptide chains, BC1 format; CD47 arm from C56, PD-L1 arm from P22; also called C56 × P22
# B9: C40 x P31.2 bispecific antibody in a BC1 format (bispecific antibody)
# chain 1: not shown
# chain 2: B1 chain 2 with L128D, C131S, P222G, G223E, K224C
# chain 3: B1 chain 3
# chain 4: B1 chain 4
# notes: B-Body of four polypeptide chains, BC1 format; CD47 arm from C40, PD-L1 arm from P31.2; also called C40 × P31.2
# B10: C40 x P24 (silent Fc) bispecific antibody in a BC44 format (bispecific antibody)
# chain 1: not shown
# chain 2: B1 chain 2
# chain 3: B1 chain 3 with F91V, G92S, A93Y, E94S, I96Y, L228A, L229A, P323K
# chain 4: B2 chain 4
# B11: antibody designated P24 (antibody, V domains shown)
# VH: EVQLVESGGGLVQPGGSLRLSCAASGFTFDQYYIHWVRQAPGKGLEWVAEIYPAGSYTYYADSVKGRFTISADTSKNTAYLQMNSLRAEDTAVYYCARGPYSVRYALDYWGQGTLVT
# VL: DIQMTQSPSSLSASVGDRVTITCRASQSVSSAVAWYQQKPGKAPKLLIYSASSLYSGVPSRFSGSRSGTDFTLTISSLQPEDFATYYCQQVSYSPYTFGQGTKVEIK
# notes: Anti-PD-L1
# Target: T1, CD47 and PD-L1 together on the surface of the same cells (CD47 PD-L1 TCA CHO cells); PD-L1 MDA-MB-231 cells; … (Homo sapiens (Human), UniProt Q08722 19-323; Q9NZQ7 19-290)
# Assay: flow cytometry on PD-L1 MDA-MB-231 cells (both targets on the cells); BC44 format
row,EC50,Binder
1,690 pM,B1
2,3100 pM,B2
3,2500 pM,B3
4,1200 pM,B4
5,1500 pM,B5

# Target: T1, CD47 and PD-L1 together on the surface …
# Assay: flow cytometry on CD47 PD-L1 TCA CHO cells (both targets on the cells); BC1 format
row,EC50,Binder
1,1300 pM,B6
2,2300 pM,B7
3,1100 pM,B8
4,130 pM,B9

# Target: T2, CD47 on cells (target cells of the assays) (Homo sapiens (Human), UniProt Q08722 19-323)
# Assay: cell-based or functional assay
row,"IC50, CD47/SIRPα Inhibition Assay, JeKo-PD-L1 Cells",Binder
1,260 pM,B10
2,1260 pM,B2
3,1200 pM,B4

# Target: T1, CD47 and PD-L1 together on the surface …
# Assay: flow cytometry on Jeko-PD-L1 cells (both targets on the cells); BC44 format
row,EC50,Binder
1,227 pM,B1
2,703 pM,B2
3,256 pM,B3
4,218 pM,B4

# Target: T2, CD47 on cells (target cells of the …)
# Assay: cell-based or functional assay
# Remark: another data set of the same source
row,"IC50, CD47/SIRPα Inhibition Assay in PD-L1 MDA-MB-231 Cells",Binder
1,108 pM,B1
2,112 pM,B2
3,266 pM,B3
4,218 pM,B4
5,350 pM,B5

# Target: PD-L1 on cells (target cells of the assays) (Homo sapiens (Human), UniProt Q9NZQ7 19-290)
# Sequence (Q9NZQ7 19-290 limits assumed): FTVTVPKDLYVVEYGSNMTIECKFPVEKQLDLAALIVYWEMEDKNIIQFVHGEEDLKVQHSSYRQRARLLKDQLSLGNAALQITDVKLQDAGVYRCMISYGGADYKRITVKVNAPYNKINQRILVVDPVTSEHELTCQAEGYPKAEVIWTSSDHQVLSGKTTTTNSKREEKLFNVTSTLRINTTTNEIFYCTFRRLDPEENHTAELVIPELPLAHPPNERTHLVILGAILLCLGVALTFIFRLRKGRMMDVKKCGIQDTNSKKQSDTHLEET
# Assay: cell-based or functional assay
"IC50, PD-1/PD-L1 Inhibition Assay in Jeko-PD-L1 Cells","IC50, PD-1/PD-L1 Inhibition Assay in MDA-MB-231 PD-L1 Cells",Binder
11.5 pM,1500 pM,B1
274 pM,14700 pM,B10
275 pM,1300 pM,B2
26.8 pM,3700 pM,B3
1990 pM,3000 pM,B4
48.1 pM,2500 pM,B5

# Target: T3, biotinylated human PD-L1 (extracellular domain, Acro Biosystems) (human, UniProt Q9NZQ7 19-238, biotinylated)
# T3 construct: Bought protein; also called biotinylated antigen; biotinylated human PD-L1-His Avitag; not shown: His Avitag or His tag
# T3 sequence (Q9NZQ7 19-238): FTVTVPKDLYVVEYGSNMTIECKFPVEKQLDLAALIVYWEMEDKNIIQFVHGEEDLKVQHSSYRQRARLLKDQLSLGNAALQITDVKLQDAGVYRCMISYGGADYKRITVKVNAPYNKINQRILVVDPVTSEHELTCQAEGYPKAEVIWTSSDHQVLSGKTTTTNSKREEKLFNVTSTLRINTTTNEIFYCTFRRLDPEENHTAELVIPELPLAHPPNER
# Assay: Octet in-tandem cross-competition, 100 nM biotinylated antigen on a streptavidin sensor
row,binding result,Binder
1,binds,B11
